According to the supplement of paper PMC9170038:

System: MS2 coat protein
Assay: apparent KD of MS2 coat protein; designed switch direction (-1 OFF switch, 1 ON switch): -1; higher = weaker reporter binding
In short: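 Each step of the titration lasted 0.8–1.5 h at the lowest concentration and 10–20 min at the highest. The protein, SNAP-549-labelled MS2 coat protein, went from 0.7 or 1.5 nM doubling to 3 µM over RNA switches transcribed on Illumina chips by stalled E. coli RNA polymerase. Normalised cluster fluorescence was curve-fitted, and the per-design median over clusters is given as apparent KD.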

[1] = Eterna round: R95, input ligand: microRNA oligo, concentration not stated
[2] = Eterna round: R95, input ligand: FMN 200 uM
[3] = Eterna round: R95, input ligand: none
[4] = input ligand: microRNA oligo, concentration not stated

Sequence	apparent KD of MS2 coat protein (input ligand: FMN 200 uM)	apparent KD of MS2 coat protein (input ligand: none)	apparent KD of MS2 coat protein [1]	apparent KD of MS2 coat protein [2]	apparent KD of MS2 coat protein [3]	apparent KD of MS2 coat protein [4]
AAGUAGACAGUGAGGAUAUAGGUGGAAUGACCCAUUUAGAAGGUACAUGAGGAUCACCCAUGUGGGUAAUGUCG [Brourd's EX4 #27] (Eterna round: R97, puzzle: Brourd's mod of Exclusion 4)	146 nM	149 nM				
AAGUAGUCUGUGAGGAUAUUGGUGGAAUGACACAUUAAGAAGGUACAUGAGGAUCACCCAUGUGGGUAAAGACG [Brourd's EX4 #24] (Eterna round: R97, puzzle: Brourd's mod of Exclusion 4)	115 nM	109 nM				
AAGUAGUGUGUGAGGAUAUUGGUGGAAUGACACAUUAAGAAGGUACAUGAGGAUCACCCAUGUGGGUAAACACG [Brourd's EX4 #23] (Eterna round: R97, puzzle: Brourd's mod of Exclusion 4)	137 nM	146 nM				
AAGUAUAGAGGAUAUAGUGAGUACUACAUGAGGAUCACCCAUGUUCUUCAAAGCGUAUUUCUAGAAGGCUAAUGAA [EX-5 Malc#14] (puzzle: Exclusion 5)			43.3 nM			
AAGUAUAGAGGAUAUAGUGAGUACUACAUGAGGAUCACCCAUGUUCUUCGAAACGUAUUUCUAGAAGGCUGAUAAA [EX-5 Malc#22] (puzzle: Exclusion 5)			28.2 nM	35.3 nM	29.2 nM	
AAGUCCGAGCGAGGAUAUUCACCUCAGUCAGCUGAAGAAGGCGCUAAGCGGUGAUUAUUUUGUACAUGAGGAUCACCCAUGUCA [Eternabot solution 49] (Eterna round: R96, puzzle: Exclusion NG 1)	20.7 nM	22.6 nM				21.2 nM
AAGUCGAGCGUGAGGAUAUUGACCGGACGACCCAUCGAGAAGGCACAUGAGGAUCACCCAUGUGAUUCAGCUCA [Brourd's EX4 #52] (Eterna round: R97, puzzle: Brourd's mod of Exclusion 4)	23.2 nM	15.5 nM				
AAGUGUCCUAAGGAUAUCGAAGCUAUCGGCUGCCGAGAAGGUAGGACAUGAGGAUCACCCAUGUACCGUGAGCC [Reedor] (puzzle: Exclusion 6)			64.6 nM			
AAGUUACAUGAGGAUCACCCAUGUGAGGAUAUGAGUCAGUCACGGUGACGUGGCUGACUCAGAAGGCACAUAGG [JL-ex1-4.42 salish99 mod] (Eterna round: R97, puzzle: Exclusion 1)	256 nM	77.1 nM				
AAUAAACAAGCGAGAUCCUACAUGAGGAUCACCCAUGUGCUCGUCUUAUAAAGUACUAUCACGAAAGUGAUAGUACA [Mat - Sensor v3 - turn-off var 1 - Eli Mod - D65] (puzzle: Sensor v3, turn-off variant 1)			41.5 nM	16.1 nM	15.3 nM	
AAUAAACAUGAGGAUCACCCAUGUCAGGAUAUACGAAGAAAGAAAGAAAGAAAGAAGAGUAGAAGGGAUAGGAA [Excls1-III] (puzzle: Exclusion 1)			29.3 nM	31.6 nM	32.6 nM	
AAUAAACAUGAGGAUCACCCAUGUGAGGAUAUCCAAAUAAAUAAUAAAAUAAAUAAAAGGAGAAGGCACAAUAA [JMF most obvious solution 2] (puzzle: Exclusion 1)			198 nM	71.7 nM	190 nM	
AAUAACAGAGGAUAUACUAUUUUAUGUGUUUGUUGUUUUGAACAUGAGGAUCACCCAUGUAGAAGGCUGAGUAA [JMF 40] (puzzle: Exclusion 2)			24.2 nM			
AAUAACAGAGGAUAUACUGUUUUAUGUAUUUAUUAUUUUAAACAUGAGGAUCACCCAUGUAGAAGGCUGAGUAA [JMF 28] (puzzle: Exclusion 2)			22.6 nM			
AAUAACAGAGGAUAUACUGUUUUAUGUAUUUAUUAUUUUGAACAUGAGGAUCACCCAUGUAGAAGGCUGAUUGA [JMF 75] (puzzle: Exclusion 2)			31.7 nM			
AAUAAGGGAGGAUAUACAUUAAAUCCUAUUUUCUUUUUGUUACAUGAGGAUCACCCAUGUAGAAGGCCCAAUAA [lam1] (Eterna round: R97, puzzle: Exclusion 2)	54.5 nM	23 nM				
AAUAAGUGAGGAUAUGCAAUAAUAAAUAAAAUAAUAAAUAAGCAGAAGGCACAUGAGGAUCACCCAUGUAAUAA [JMF's solution 1] (puzzle: Exclusion 4)			20.8 nM	29.2 nM	21.6 nM	
AAUAAUAGGGAGGAUAUCGUAUCGGAAACGAUACGAGAAGGUCUAACAUGAGGAUCACCCAUGUUCCUCAAUAA [Fiskers Ex 6 - 5] (puzzle: Exclusion 6)			40.6 nM	68.3 nM	45.7 nM	

Sequence	apparent KD of MS2 coat protein (input ligand: FMN 200 uM)	apparent KD of MS2 coat protein (input ligand: none)	apparent KD of MS2 coat protein [1]	apparent KD of MS2 coat protein [2]	apparent KD of MS2 coat protein [3]	apparent KD of MS2 coat protein [4]
AAUAAUGAUAAGGAUAUCACUAGCUGCGGCUAGUGAGAAGGUAUCACAUGAGGAUCACCCAUGUGUUCCAAUAA [Ex6/6-A3] (Eterna round: R97, puzzle: Exclusion 6)	33.1 nM	14.1 nM				
AAUAAUGUAGGAUAUACAUGAGGAUCACCCAUGUCCCACCCGUUACCUAUGACCAUAUGUAGAAGGACAAAUAA [Exy#4] (Eterna round: R97, puzzle: Exclusion 3)	56.7 nM	67.3 nM				
AAUAAUUUUUUUUUUUUACAAGCUUUUUGCUCGUCUUAUACAUGAGGAUCACCCAUGUGGGUGAAAGAUAGAUUGUC [JMF's solution 1] (puzzle: Sensor v3, turn-off variant 2)			18.2 nM	30.6 nM	44.8 nM	
AAUACAAGCUAUUGAUCCCACAUGAGGAUCACCCAUGUAGCUGGCGGUGACACCUCCAUUACGAUAGCUCGUCUUAU [Sensor-V1 #56] (Eterna round: R97, puzzle: Sensor, turn-off variant 1)	796 nM	1670 nM				
AAUACAAGCUAUUGAUCCCACAUGAGGAUCACCCAUGUAGGUGGCCGUGAGACCACCUUUACGAUAGCUCGUCUUAU [Sensor-V1 #51] (Eterna round: R97, puzzle: Sensor, turn-off variant 1)	277 nM	274 nM				
AAUACACAUGAGGAUCACCCAUGUCAGGAUAUGCGGAAUAAGACUUUGGUCGAUAAAUGUAGAAGGGACGUUUA [Dr. RN-Ant/Googlypuddle] (puzzle: Exclusion 1)			27.7 nM			
AAUACUAACACGAAAGUGUUAGUACAAUAAGCUUGUGGUACAUGAGGAUCACCCAUGUCCUCAUAAGCUCGUCUUAU [Mat - Sensor v3 - Turn-off var 2 - D41] (puzzle: Sensor v3, turn-off variant 2)			74.5 nM	24.3 nM	21.9 nM	
AAUAGGACAGGAUAUCCGGAGUCGAACAUGAGGAUCACCCAUGUGAUGAGGAUGUUCGCUGGAGAAGGGUCGGGCU [Teonus] (puzzle: Exclusion 5)			56.5 nM	83.9 nM	53.7 nM	
AAUAGUAAUAAGGAUAUCACUAGCUUCGGCUAGUGAGAAGGUAUUACAUGAGGAUCACCCAUGUGGUCAAUUAA [E6/4-A1] (Eterna round: R97, puzzle: Exclusion 6)	360 nM	922 nM				
AAUAGUCGGUAGGAUAUCCACGGAUGACCGGCAGGAGAAGGGCCGACUUGAGGAUCACCCAAGUAUGGUCCAAC [Ortiqumate] (Eterna round: R97, puzzle: Exclusion 6)	25.1 nM	13.9 nM				
AAUAUCGUAGGAUAUUAAUACUCAGACAUGAGGAUCACCCAUGUUUGGUGGGUCGGAGAAUGAGAAGGGCGAUGAA [EX5 #15] (Eterna round: R97, puzzle: Exclusion 5)	86 nM	54.7 nM				
AAUCCACAUGAGGAUCACCCAUGUGAGGAUAUGAUACUAUGUACUUCGGUACAUAGUAUCAGAAGGCACAUGAA [Ex1-3: 50] (puzzle: Exclusion 1)			64.2 nM	118 nM	71.6 nM	
AAUCCUCUGCAGGAUAUCACUGGAUGAACCAGCUGAGAAGGGCGCACAUGAGGAUCACCCAUGUUGUAAGUAGC [Eternabot (L1) Solution 80] (Eterna round: R97, puzzle: Exclusion 6)	132 nM	51.7 nM				
AAUCUGCCGUAGGAUAUCUGAAGUUUAUAUAUAAGAGAAGGACGGACAUGAGGAUCACCCAUGUACGAUCCUGC [EX6 B.24] (Eterna round: R97, puzzle: Exclusion 6)	19.9 nM	11.5 nM				
AAUCUGUGAGGAUAUGGUGAGUAGUGCCUGAGCGCUGCUCACCAGAAGGCACAUGAGGAUCACCCAUGUAUGAC [Mat - Exclusion 4 - Mod of JL - D2] (puzzle: Exclusion 4)			27.7 nM			
AAUGAGCGAGGAUAUGCAACUGUAUGACCUACGUGUGCCAGACAUGAGGAUCACCCAUGUAGAAGGUGCUUUCC [Israte] (Eterna round: R96, puzzle: Exclusion 2)	59.9 nM	57 nM				45.3 nM
AAUGAGCGAGGAUAUGCAACUGUAUGACCUACGUGUGCCAGACAUGAGGAUCACCCAUGUAGAAGGUGCUUUCC [Israte] (puzzle: Exclusion 2)			45.4 nM			
AAUGAUGAUGUGAGGAUAUACAUAGUUAGACCGUAGUAGAAGGCACAUGAGGAUCACCCAUGUAGAUGUUAGGU [JR_BME4_Sub003] (puzzle: Brourd's mod of Exclusion 4)			12.9 nM	21.5 nM	14.4 nM	
